This data set in a line: label from the status in PepcDB records.

Our source for the protein production values is a protein production outcome set (Wang et al. 2014).

As to “MLNSDIYLKESLYDLLSLWRTPAFFLPAMLFPLVFYVFFGIVFNFSAAQGEYMLVSYACFGMMGPALFNYATAVASDRAQGWLTLKRISPMPLSAYVVAKFFSSLVFAACIALMLFITAALFADVQLLLWQWATLFTVLLIGTLPFALIGLLMGLCLSDKAAPAVVNLVYLPMAFLSGLWVPIQFLPDTVRYIAYGLPSYHYSQLAHAVIGTNQGHNLWLHGLYLVAFCGVLIAVIYWRYQRLSR”, the protein production result is “failed”.
On to “MLNTLIVGASGYAGAELVSYVNRHPHMTITALTVSAQSNDAGKLISDLHPQLKGIVDLPLQPMSDVRDFSADVDVVFLATAHEVSHDLAPQFLQAGCVVFDLSGAFRVNDRAFYEKYYGFTHQYPELLEQAVYGLAEWNVDKLNTANLIAVPGCYPTAAQLSLKPLIDGGLLDLTQWPVINATSGVSGAGRKAAISNSFCEVSLQPYGVFTHRHQPEIAVHLGAEVIFTPHLGNFPRGILETITCRLKAGVTHAQVADVLQKAYGDKPLVRLYDKGVPALKNVVGLPFCDIGFAVQGEHLIVVATEDNLLKGAAAQAVQCANIRFGFAETQSLI”, for which the protein production result is given as “not failed”.
Regarding “MLPAQDTRGKGLSLARRLYRSRTLGLALGFFCVAAGMAPLQPAPWVWGFMLFNAFAWPHLAYQWARLARVPFRAEYRNLLVDSLLGGFWVGAMHFNPLPLATTLGMMAMNNMALGGLRFFLAGSAAQVLGMGVALWLFGPAFVAQTTPEQVYACLPMLTLYPLALGYICYQQAVTLGRHKRELLALSRTDSLTGLLNHGAWKDQLEIEFQRCKRQAHGGAIALIDIDHFKAINDTYGHVAGDVVLRQLSKLLRQNLRVSDQAGRYGGDEFCVILPDVPLAHAAELMEALRGRFGALGYEQSPALQVSLSIGLAAFNPLHDDAMGWLNDADQALYAAKTCGRNNVTCHPPEQPSRRLLNSL”, the protein production result was “failed”.
The value for “MLPAYIKIHDAIKKEIDKGTWKIGQRLPSERDLADDYSVSRMTLRQSITLLVEEGILERRVGSGTYVASHRVQEKMRGTTSFTEIVNSQGRKPSSKLISFQRKLANETEIQKLNLSQSDYVVRMERVRYADKVPLVYEVASIPENLIKGFEQSEVTEHFFKTLTENGYEIGKSQQTIYARNASERVASHLEVNAGHAILALTQVSYFTDGKPFEYVHGQYVGDRFEFYLENN” was “failed”.
The value for “MLPIYTGSAIQCPMRLDAYLVEMGHFKSRGRAKTAILDGKVKVNGIAVTKVSRDVSIDDTIEVAEGLDQPQGYFKLKYVQEESGVLKPGDRVLDLGSSAGGFLLFASEIADHVKGIEFSRDFRSELGKIAYERENVEIIFGDVFTIPLKELSEEPVDVILSDMTLEPEDSIKALSRMLPLLKEGGRLLQVIKIPKKKNPKPILSRIENLGLEIQQVLSSEKQEIYVVAKRPFLEGKESTEENE” was “failed”; that for “MLPLLVGTGVLVFLLLFGDSLLQDSDSYWQIETGRWILAHGTVPTVDSFSFSKAGEPWQSSSWLAQLIFALAMQAGWAGPVIVTALAVAAALAMFTAYLERYASALVTAALALAAMVLIMPHVLARPHMLALPVMVAWFIGLIDAADRKAAPPWALLLVMALWANLHGGFVFGLMLIGPLGLEALRQAEPQRRLSLALRWAAFGIAAVAACCATPYGWGTLLAATKILSLGEVLSTLGEWASSDFSKFGTFEASLLALLGIALARGLTLPWPRLLLVLGLVHMALVHVRSIEHYALLVPMIAARPWALQLGLARKSAEAKPDLAPPAWAGVVAVIAIIAATIAAAPRLHYRFDEPQVPERALAAVQAHGAKRIFNAYIFGGYLISRHVPVFIDGRAELYGEARVMDMMRATAGRDPAALDRMLTGNDIDATMLPPSAAAVRQMDERPGWRRLYADDIAVVHVRD” was “failed”.
The value for “MLPSGLKETQLRESNNNQKVHPQPMEESINQNPEAMEALISNLFGNISSLKSAYIELQSAHTPYDPEKIQAADKVVISELKNLSEMKHFYRENNPKPVCVSPQDSRLAAEIQEQQSLLKTYEVMVKKFQSEIQNKDSEITQMLQKIEEANQKRLKLEKNLKLRGMSTNEGSNGDGNMQFPDLTTELYVSTYEAAAKAVHDFSKPLINMMKAAGWDLDSAANSIEPDVVYAKRPHKKYAFESYICQRMFSGFQQKNFSVNSESAAVMANDDTDTFFRQFLALKDMDPLDALGTNPDSNFGIFCRSKYLLLVHPKMEASFFGNLDQRDYVTGGGHPRTAFYQAFLKLAKSIWILHRLAYSFDPAAKIFQVKKGSEFSDSYMESVVKNIVVDEKEENPRVGLMVMPGFWIGGSVIQSRVYVSGVKVLE” was “failed”; that for “MLPTKINLIRLRRELAMLRRIRRVMEEKREVILHYITSMAAEYVRYQREVYSELERIYQNYYLGVAAEGIERARAFTAPAEGSLEVDVSTRTLFAVKTPVFSLREETVPPLPLPAGSDPKLVQSILDMRSILDKLLKLAEYEETLQRLISELKDTQRLINALDYVILPSYQNAIKFIKLVLEDRMREDFVRLKIIKRKMEAKTQLEHHHHHH” was “not failed”; that for “MLQIIFLVIGLFIIVLALSFAFKRYARLILWSSAITLFAGTLLLVGIGVINPIDGDNTGSTTFWGTIITLISGAALAFCAEMLKEGNKGKTKVQNGNSSVSGKQTADNEETVVLIGMLHTELAIKVFAKAIEAGYIGEKGSHYKWNDSKVLLAYMCGRIYCGDKPEYSEMDEKSYWKFGRMGVFPDTELSNLFEMPDLGQSRSNRKDLAVPAKSKEIDKFFE” was “failed”.
Consider “MLQRIGLIFLHNIVVVSNCFYFQAFLDEFTNWSRINPNKARIPMAGDTQGVVGTVSKPCFTAYEMKIGAITFQVATGDIATEQVDVIVNSTARTFNRKSGVSRAILEGAGQAVESECAVLAAQPHRDFIITPGGCLKCKIIIHVPGGKDVRKTVTSVLEECEQRKYTSVSLPAIGTGNAGKNPITVADNIIDAIVDFSSQHSTPSLKTVKVVIFQPELLNIFYDSMKKRDLSASLNFQSTFSMTTCNLPEHWTDMNHQLFCMVQLEPGQSEYNTIKDKFTRTCSSYAIEKIERIQNAFLWQSYQVKKRQMDIKNDHKNNERLLFHGTDADSVPYVNQHGFNRSCAGKNAVSYGKGTYFAVDASYSAKDTYSKPDSNGRKHMYVVRVLTGVFTKGRAGLVTPPPKNPHNPTDLFDSVTNNTRSPKLFVVFFDNQAYPEYLITFTA”, for which the protein production entry is given as “failed”.
As to “MLQTIKRADSAVSIIGAGIAGAWQALLFAQAGHAVTLHERGDAAMTDSTSHWAGGMLAPWCEAEVAEPIISRLGQRSLDIWRRELPDTPFNGSLVVAHPRERNDFERFARMTEEHRRLDAASLAELEPSLEGRFRDALFFPTEGHVEPRRVLPKLHERIRAAGGTIKFSSDVSAADLDGIVIDCRGLSARDEQPDLRGVKGEMILIETSEVQLARPVRLIHPRWPLYVIPREDNLFMLGATSIEAEDTGVSVRSALELLGAAYTVHPAFGEARIVEFGSGLRPAFPDNLPRIGIRGGRITVNGLYRHGFLIAPALAELTLQYVQRGQIDNEVMQCG”, the protein production entry is reported as “failed”.
The value for “MLQTLYTIILYLIQPLIWIRLWLRGRKAPAYRRRWGERYGFCAEKVKPDGIMLHSVSVGETLAAIPLVRALRHRYPNLPITVTTMTPTGSERVRSAFGDTVYHVYLPYDLPCALKRFFDQVRPKIVIIMETELWPNLIAELHKREIPLVIANARLSERSAAGYKKIGKLMRHILQRITLVAAQNQEDGNRFIALGLKRSSLKVTGSLKFDISVTPELAARAITLRRQWAPHRPVWIATSTHEGEEAIVLAAHRRLLATYPDLLLILVPRHPERFSTTQALAESMGFNYTLRSSGEQPSANTQVVIGDTMGELMLLYGIADLAFVGGSLVERGGHNPLEAAAHAIPVLMGPHTFNFKDICNKLDQADGLITVTDADSLGKEVGKLLADEDYRLYYGRHAVEVLHQNQGALQMLLTLLEPYLPQRTQLEHHHHHH” was “not failed”.
Then “MLQYGQKSFLIVDDFTDFRTSTRSMLRELGVRDVDTADSGEQALRMCAQKRYDFILQDFHLGDGKKNGQQVLEDLIIDKHISHECVFIMVTAESSQAIVLSAIEHEPDAYLTKPFNRVGLAQRVEKLFQRKTLLKPILQALDRNRPAEVLAACAELCKKDPRLAPLCLRYRADALRNLNRFEELEKFLKAILASRPQPWVYAALGALMHKRGQNAQAQGVYEQALKAFPIMPGLYDGMAEVLVAQGDTRRAQNLLEEAVRLSPLSVRRQSTLGKLALENEDFESASKAFRHAVNQGQSSRYKDAENNLGLVQALMSKNAGFGLDARTRVEINTTLSEVAKENPEDQGLQVRARMMKAASLQQAGDPETAGKLTEQAIQRLDKMNQFFSVDSALTVAAQLQAMGQEAAAIGVLKNCVESYGDDPKVMEKVGKLTDDPSVLNAITEAVTLNRQGVRSYQGGQLGEALQLFRKALGLQPKNISIALNTAQALLRIGGDNPQPAIMQECRDALTSVAGIPASDNRYDRYRKLHIRVFGA”, with “failed”; and “MLRFKRKNFFKTINFKIALVFALLLLITLEIVGAIFVKQLESKNIQDFKQSVQIPTYIDNSLSEQLTVSSTRKANGQIKTILSNYNNTNVDEIQVVDSKGTIRGTSDVNDQSVVGQKTTDRNVKNAIYNNRTYTKSTYDTQNNGRYYVSIVPLYSSNSAGNSSQLVGVLYVRANMKSVYSTINNIMGIFVIASLAAMVLGLGIAIIIARAITRPIEEMKQQTQRIARGDYAGQVRVYSDDELGQLAKAINNLSIRVEESQESTEAERRRLDSVLSHMSDGVIATDRRGNITIINETASDFMDVTAEKAIGNSILDILKIRDDYSLRDLIENQDELMLDFSSNERDLILNAYFSLIQRESGFISGLVCVLHDVTEQQKIDNDRKQFVSNVSHELRTPLTSLRSYIEALSDGAWKDPEVAPGFLKVTQEETDRMIRMINELLSLSRMDSGTTRVDMELVNINEMFNYVLDRFDMILKKDDNPAKYYTIKREFTKRDLWVEIDTDKFTQVLDNIMNNAIKYSPDGGVVTCRLLETHNQVIISISDQGLGIPRADLGHVFDRFFRVDKARSRAQGGTGLGLAISKEVVQMLGGRIWVDSVEGKGSTFYISLPYEPYEEEDLWDDDSQA”, with “failed”; and “MLRIYAPASSANISVGFDTLGAAISPIDGSLLGDVVQIESISTGFELESAGYFVRKLPKEPQKNIVYQAYVLFSEQLKLRGANVKPLRLTLEKNMPIGSGLGSSACSIVAALVALNQFHNEPFSKMELLEMMGELEGRISGSIHYDNVAPCYLGGVQFMVQS”, with “failed”.
Then “MLRMKKFLVVFFLVQSIFVFAQQSKKVESALKTFNSGKIDDGIKKMEAATQEDPSEDNWDLLVQMYKYRYEYAEQQQEDALTLLLLQSLGGSKAKIKKYTSPSVCYRDLIEKSKQAELNSRSTTASMVLRAYLVDYYPDTAVADTAKKEFNSAEKYFSEKDYPNAKLHYQNACKLDPSYYKALIYLGDTHWHMKKMDSAIYYFKQGIQMHGDLLEPRKYLVDALRDSKQYDEAIQESINAITVYPDESMFEKVESLYAKTGRTFDRHWIKRGCNVNTYAGTQLVTTNETWKAYQQARGEIKTYCDTNGVIVKSNSLTKAHYMEVYSWEKMLASNLVVPQELAFAKKMADEGYLDCYVFISLYHYDEYDQFIDFAKNNKERIRTYITKYLIQ”, with “failed”.
Consider “MLSARTMKEVVYWSPKKVADWLLENAMPEYCEPLEHFTGQDLINLTQEDFKKPPLYRVSSDNGQRLLDMIETLKMEHHMEAHKN”, for which the protein production entry is listed as “not failed”.
The value for “MLSFCPSCNNMLLITSGDSGVYTLACRSCPYEFPIEGIEIYDRKKLPRKEVDDVLGGGWDNVDQTKTQCPNYDTCGGESAYFFQLQIRSADEPMTTFYKCVNCGHRWKEN” was “failed”.
Then “MLSIMRRPIAALAVLLAAAVSIPAQAQFSDSYKFLEAVRKKEGDKVTEALNEPGTQIVNTKDYTTGQTGLHIVVARRDLVWVQFLVAKGANVNARDNRGVTPLVLAADIGFIEGVDELIRSGARVDEANNTGETPLISAVHRRDLALVRMLIKAGANPDRPDNSGRSARDYAMLEGKGSPLLGEIEKATKDAKAAGPQKTYGPSF”, with “failed”.
